The target in assay [1] is Epidermal Growth Factor Receptor (EGFR) on target cells (human), P00533. Description: cell-based or functional assay.
The target of assay [2] is HLA-A*02 on target cells (human). In words: cell-based or functional assay.

The results in this text go back to patent US20230277593A1.

B1: CT-487 EGFR scFv CAR activator (scFv, not shown: small tags and cut ends)
scFv: QVQLVQSGAEVKKPGASVKVSCKASGYTFTSHWMHWVRQAPGQGLEWIGEFNPSNGRTNYNEKFKSKATMTVDTSTNTAYMELSSLRSEDTAVYYCASRDYDYDGRYFDYWGQGTLVTVSSGGGGSGGGGSGGGGSGGDIQMTQSPSSLSASVGDRVTITCSASSSVTYMYWYQQKPGKAPKLLIYDTSNLASGVPSRFSGSGSGTDYTFTISSLQPEDIATYYCQQWSSHIFTFGQGTKVEIK
Consider B1, for which the Activator EC50 (ng); EGFR mRNA titrated into EGFR negative target cells in assay [1] turned out to be 3500 ng.

B2: HLA-A*02 PA2.1 scFv LIR1 inhibitor (C1765) (scFv, part only; not given: LIR-1 hinge, transmembrane and intracellular, part only)
scFv, part: DVLMTQTPLSLPVSLGDQASISCRSSQSIVHSNGNTYLEWYLQKPGQSPKLLIYKVSNRFSGVPDRFSGSGSGTDFTLKISRVEAEDLGVYYCFQGSHVPRTSGGGTKLEIKGGGGSGGGGSGGGGSGGQVQLQQSGPELVKPGASVRISCKASGYTFTSYHIHWVKQRPGQGLEWIGWIYPGNVNTEYNEKFKGKATLTADKSSSTAYMHLSSLTSEDSAVYFCAREEITYAMDYWGQGTSVTVSS
Take B2: in assay [2], the Mouse Blocker EC50 (ng), with activator CT486; HLA-A*02 mRNA titrated into target cells stood at 4700 ng; the Mouse Blocker EC50 (ng), with activator CT487; HLA-A*02 mRNA titrated into target cells amounted to 3500 ng; the Mouse Blocker EC50 (ng), with activator CT488; HLA-A*02 mRNA titrated into target cells stood at 4700 ng; the Mouse Blocker EC50 (ng), with activator CT489; HLA-A*02 mRNA titrated into target cells was 4200 ng. In assay [2], the selectivity ratio (mouse blocker C1765 paired with CT486) is 15.7; the selectivity ratio (mouse blocker C1765 paired with CT487, first mention) turned out to be 18.4; the selectivity ratio (mouse blocker C1765 paired with CT487 as printed, second mention) amounted to 21.2; the selectivity ratio (mouse blocker C1765 paired with CT489) stood at 21.6. Further, in assay [2], the shift of CAR EMAX (Jurkat NFAT-luciferase, with EGFR CAR CT479, HeLa target cells) is over 5 fold.

B3: HLA-A*02 PA2.1 scFv LIR1 inhibitor (C2162) (scFv, part only; not given: LIR-1 hinge, transmembrane and intracellular, part only)
scFv, part: QVQLVQSGAEVKKPGSSVKVSCKASGYTFTSYHIHWVRQAPGQGLEWIGWIYPGNVNTEYNEKFKGKATITADESTNTAYMELSSLRSEDTAVYYCAREEITYAMDYWGQGTLVTVSSGGGGSGGGGSGGGGSGGDIQMTQSPSTLSASVGDRVTITCRSSQSIVHSNGNTYLEWYQQKPGKAPKLLIYKVSNRFSGVPARFSGSGSGTEFTLTISSLQPDDFATYYCFQGSHVPRTFGQGTKVEVK
B3: in assay [2], the Human Blocker EC50 (ng), with activator CT486; HLA-A*02 mRNA titrated into target cells came to 4000 ng; the Human Blocker EC50 (ng), with activator CT487; HLA-A*02 mRNA titrated into target cells was determined as 2900 ng; the Human Blocker EC50 (ng), with activator CT488; HLA-A*02 mRNA titrated into target cells came to 3500 ng; the Human Blocker EC50 (ng), with activator CT489; HLA-A*02 mRNA titrated into target cells came to 3200 ng. In assay [2], the selectivity ratio (humanized blocker C2162 paired with CT486) is 17; the selectivity ratio (humanized blocker C2162 paired with CT487, first mention) worked out at 5; the selectivity ratio (humanized blocker C2162 paired with CT487 as printed, second mention) is 5; the selectivity ratio (humanized blocker C2162 paired with CT489) was 24.2.
